In PMC8750329:

What was measured:
[1] = biological target: P. clarkii crustacyanin A2 (PcCRA2) (Procambarus clarkii); experiment: SEC + other: SDS-PAGE; fraction F1, 1 mg/mL, TSK-gel G3000SWxl, 20 mM sodium phosphate pH 7.0, 0.7 mL/min, calibrated with a protein standard mix; native mass about 170 kDa against a single 21 kDa band on SDS-PAGE
[2] = biological target: P. clarkii crustacyanin A2 (PcCRA2) (Procambarus clarkii); experiment: SEC + other: SDS-PAGE; fraction F2, 1 mg/mL, TSK-gel G3000SWxl, 20 mM sodium phosphate pH 7.0, 0.7 mL/min, calibrated with a protein standard mix; native mass about 43 kDa against a single 21 kDa band on SDS-PAGE

In the case of “P. clarkii crustacyanin A2 (PcCRA2) (natural protein)”, the stoichiometry N [1] is reported as 8 and the stoichiometry N [2] is reported as 2.
